From patent US12099068B2, “Biomarkers for graft-versus-host disease” (Incyte Corporation, priority 2018, dated 2024)

Each molecule was assayed on plasma proteins (assay: Plasma proteins modulated between baseline and day 28 in responders (CR, VGPR, PR; n = 19), Example 6 (Table 13)). Conditions: plasma protein (OLINK NPX); responders (CR, VGPR, PR; n = 19); itacitinib 200 mg or 300 mg QD with corticosteroids; day 28 vs baseline.
Type: in vivo, human
Outline: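 Longitudinal comparison, day 28 versus baseline, with steroid-naive (N=10) and steroid-refractory (N=18) patients combined. Proteins measured by OLINK proximity extension, log2 normalized protein expression. Differences tested by t tests, ANOVA, Pearson correlation, P<0.05 significant.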

Molecule	Fold Change, Decreased Expression from Baseline to Day 28	Fold Change, Increased Expression from Baseline to Day 28
CD93 (protein, UniProt Q9NPY3 22-652, looked up) Complement component C1q …: TGADTEAVVCVGTACYTAHSGKLSAAEAQNHCNQNGGNLATVKSKEEAQHVQRVLAQLLRREAALTARMSKFWIGLQREKGKCLDPSLPLKGFSWVGGGEDTPYSNWHKELRNSCISKRCVSLLLDLSQPLLPSRLPKWSEGPCGSPGSPGSNIEGFVCKFSFKGMCRPLALGGPGQVTYTTPFQTTSSSLEAVPFASAANVACGEGDKDETQSHYFLCKEKAPDVFDWGSSGPLCVSPKYGCNFNNGGCHQDCFEGGDGSFLCGCRPGFRLLDDLVTCASRNPCSSSPCRGGATCVLGPHGKNYTCRCPQGYQLDSSQLDCVDVDECQDSPCAQECVNTPGGFRCECWVGYEPGGPGEGACQDVDECALGRSPCAQGCTNTDGSFHCSCEEGYVLAGEDGTQCQDVDECVGPGGPLCDSLCFNTQGSFHCGCLPGWVLAPNGVSCTMGPVSLGPPSGPPDEEDKGEKEGSTVPRAATASPTRGPEGTPKATPTTSRPSLSSDAPITSAPLKMLAPSGSPGVWREPSIHHATAASGPQEPAGGDSSVATQNNDGTDGQKLLLFYILGTVVAILLLLALALGLLVYRKRRAKREEKKEKKPQNAADSYSWVPERAESRAMENQYSPTPGTDC	−1.3029	
ST1A1 (protein, UniProt P50225 1-295, looked up) Sulfotransferase 1A1: MELIQDTSRPPLEYVKGVPLIKYFAEALGPLQSFQARPDDLLISTYPKSGTTWVSQILDMIYQGGDLEKCHRAPIFMRVPFLEFKAPGIPSGMETLKDTPAPRLLKTHLPLALLPQTLLDQKVKVVYVARNAKDVAVSYYHFYHMAKVHPEPGTWDSFLEKFMVGEVSYGSWYQHVQEWWELSRTHPVLYLFYEDMKENPKREIQKILEFVGRSLPEETVDFVVQHTSFKEMKKNPMTNYTTVPQEFMDHSISPFMRKGMAGDWKTTFTVAQNERFDADYAEKMAGCSLSFRSEL	−1.9523	
FCGR2A (protein, UniProt P12318 34-317, looked up) Low affinity immunoglobulin …: QAAAPPKAVLKLEPPWINVLQEDSVTLTCQGARSPESDSIQWFHNGNLIPTHTQPSYRFKANNNDSGEYTCQTGQTSLSDPVHLTVLSEWLVLQTPHLEFQEGETIMLRCHSWKDKPLVKVTFFQNGKSQKFSHLDPTFSIPQANHSHSGDYHCTGNIGYTLFSSKPVTITVQVPSMGSSSPMGIIVAVVIATAVAAIVAAVVALIYCRKKRISANSTDPVKAAQFEPPGRQMIAIRKRQLEETNNDYETADGGYMTLNPRAPTDDDKNIYLTLPPNDHVNSNN	−1.5278	
CPA2 (protein, UniProt P48052 115-419, looked up) Carboxypeptidase A2: SGNFNFGAYHTLEEISQEMDNLVAEHPGLVSKVNIGSSFENRPMNVLKFSTGGDKPAIWLDAGIHAREWVTQATALWTANKIVSDYGKDPSITSILDALDIFLLPVTNPDGYVFSQTKNRMWRKTRSKVSGSLCVGVDPNRNWDAGFGGPGASSNPCSDSYHGPSANSEVEVKSIVDFIKSHGKVKAFITLHSYSQLLMFPYGYKCTKLDDFDELSEVAQKAAQSLRSLHGTKYKVGPICSVIYQASGGSIDWSYDYGIKYSFAFELRDTGRYGFLLPARQILPTAEETWLGLKAIMEHVRDHPY		1.7185
GPNMB (protein, UniProt Q14956 23-572, looked up) Transmembrane glycoprotein NMB: KRFHDVLGNERPSAYMREHNQLNGWSSDENDWNEKLYPVWKRGDMRWKNSWKGGRVQAVLTSDSPALVGSNITFAVNLIFPRCQKEDANGNIVYEKNCRNEAGLSADPYVYNWTAWSEDSDGENGTGQSHHNVFPDGKPFPHHPGWRRWNFIYVFHTLGQYFQKLGRCSVRVSVNTANVTLGPQLMEVTVYRRHGRAYVPIAQVKDVYVVTDQIPVFVTMFQKNDRNSSDETFLKDLPIMFDVLIHDPSHFLNYSTINYKWSFGDNTGLFVSTNHTVNHTYVLNGTFSLNLTVKAAAPGPCPPPPPPPRPSKPTPSLATTLKSYDSNTPGPAGDNPLELSRIPDENCQINRYGHFQATITIVEGILEVNIIQMTDVLMPVPWPESSLIDFVVTCQGSIPTEVCTIISDPTCEITQNTVCSPVDVDEMCLLTVRRTFNGSGTYCVNLTLGDDTSLALTSTLISVPDRDPASPLRMANSALISVGCLAIFVTVISLLVYKKHKEYNPIENSPGNVVRSKGLSVFLNRAKAVFFPGNQEKDPLLKNQEFKGVS		1.2117
FOXO1 (protein, UniProt Q12778 1-655, looked up) Forkhead box protein O1: MAEAPQVVEIDPDFEPLPRPRSCTWPLPRPEFSQSNSATSSPAPSGSAAANPDAAAGLPSASAAAVSADFMSNLSLLEESEDFPQAPGSVAAAVAAAAAAAATGGLCGDFQGPEAGCLHPAPPQPPPPGPLSQHPPVPPAAAGPLAGQPRKSSSSRRNAWGNLSYADLITKAIESSAEKRLTLSQIYEWMVKSVPYFKDKGDSNSSAGWKNSIRHNLSLHSKFIRVQNEGTGKSSWWMLNPEGGKSGKSPRRRAASMDNNSKFAKSRSRAAKKKASLQSGQEGAGDSPGSQFSKWPASPGSHSNDDFDNWSTFRPRTSSNASTISGRLSPIMTEQDDLGEGDVHSMVYPPSAAKMASTLPSLSEISNPENMENLLDNLNLLSSPTSLTVSTQSSPGTMMQQTPCYSFAPPNTSLNSPSPNYQKYTYGQSSMSPLPQMPIQTLQDNKSSYGGMSQYNCAPGLLKELLTSDSPPHNDIMTPVDPGVAQPNSRVLGQNVMMGPNSVMSTYGSQASHNKMMNPSSHTHPGHAQQTSAVNGRPLPHTVSTMPHTSGMNRLTQVKTPVQVPLPHPMQMSALGGYSSVSSCNGYGRMGLLHQEKLPSDLDGMFIERLDCDMESIIRNDLMDGDTLDFNFDNVLPNQSFPHSVKTTTHSWVSG	−1.3557	
DKKL1 (protein, UniProt Q9UK85 31-242, looked up) Dickkopf-like protein 1: APIHDADAQESSLGLTGLQSLLQGFSRLFLKGNLLRGIDSLFSAPMDFRGLPGNYHKEENQEHQLGNNTLSSHLQIDKMTDNKTGEVLISENVVASIQPAEGSFEGDLKVPRMEEKEALVPIQKATDSFHTELHPRVAFWIIKLPRRRSHQDALEGGHWLSEKRHRLQAIRDGLRKGTHKDVLEEGTESSSHSRLSPRKTHLLYILRPSRQL		1.1495
Ep-CAM (protein, UniProt P16422 24-314, looked up) Epithelial cell adhesion …: QEECVCENYKLAVNCFVNNNRQCQCTSVGAQNTVICSKLAAKCLVMKAEMNGSKLGRRAKPEGALQNNDGLYDPDCDESGLFKAKQCNGTSMCWCVNTAGVRRTDKDTEITCSERVRTYWIIIELKHKAREKPYDSKSLRTALQKEITTRYQLDPKFITSILYENNVITIDLVQNSSQKTQNDVDIADVAYYFEKDVKGESLFHSKKMDLTVNGEQLDLDPGQTLIYYVDEKAPEFSMQGLKAGVIAVIVVVVIAVVAGIVVLVISRKKRMAKYEKAEIKEMGEMHRELNA		1.403
NEP (protein, UniProt P08473 2-750, looked up) Neprilysin: GKSESQMDITDINTPKPKKKQRWTPLEISLSVLVLLLTIIAVTMIALYATYDDGICKSSDCIKSAARLIQNMDATTEPCTDFFKYACGGWLKRNVIPETSSRYGNFDILRDELEVVLKDVLQEPKTEDIVAVQKAKALYRSCINESAIDSRGGEPLLKLLPDIYGWPVATENWEQKYGASWTAEKAIAQLNSKYGKKVLINLFVGTDDKNSVNHVIHIDQPRLGLPSRDYYECTGIYKEACTAYVDFMISVARLIRQEERLPIDENQLALEMNKVMELEKEIANATAKPEDRNDPMLLYNKMTLAQIQNNFSLEINGKPFSWLNFTNEIMSTVNISITNEEDVVVYAPEYLTKLKPILTKYSARDLQNLMSWRFIMDLVSSLSRTYKESRNAFRKALYGTTSETATWRRCANYVNGNMENAVGRLYVEAAFAGESKHVVEDLIAQIREVFIQTLDDLTWMDAETKKRAEEKALAIKERIGYPDDIVSNDNKLNNEYLELNYKEDEYFENIIQNLKFSQSKQLKKLREKVDKDEWISGAAVVNAFYSSGRNQIVFPAGILQPPFFSAQQSNSLNYGGIGMVIGHEITHGFDDNGRNFNKDGDLVDWWTQQSASNFKEQSQCMVYQYGNFSWDLAGGQHLNGINTLGENIADNGGLGQAYRAYQNYIKKNGEEKLLPGLDLNHKQLFFLNFAQVWCGTYRPEYAVNSIKTDVHSPGNFRIIGTLQNSAEFSEAFHCRKNSYMNPEKKCRVW		1.8376
NBN (protein, UniProt O60934 1-754, looked up) Nibrin: MWKLLPAAGPAGGEPYRLLTGVEYVVGRKNCAILIENDQSISRNHAVLTANFSVTNLSQTDEIPVLTLKDNSKYGTFVNEEKMQNGFSRTLKSGDGITFGVFGSKFRIEYEPLVACSSCLDVSGKTALNQAILQLGGFTVNNWTEECTHLVMVSVKVTIKTICALICGRPIVKPEYFTEFLKAVESKKQPPQIESFYPPLDEPSIGSKNVDLSGRQERKQIFKGKTFIFLNAKQHKKLSSAVVFGGGEARLITEENEEEHNFFLAPGTCVVDTGITNSQTLIPDCQKKWIQSIMDMLQRQGLRPIPEAEIGLAVIFMTTKNYCDPQGHPSTGLKTTTPGPSLSQGVSVDEKLMPSAPVNTTTYVADTESEQADTWDLSERPKEIKVSKMEQKFRMLSQDAPTVKESCKTSSNNNSMVSNTLAKMRIPNYQLSPTKLPSINKSKDRASQQQQTNSIRNYFQPSTKKRERDEENQEMSSCKSARIETSCSLLEQTQPATPSLWKNKEQHLSENEPVDTNSDNNLFTDTDLKSIVKNSASKSHAAEKLRSNKKREMDDVAIEDEVLEQLFKDTKPELEIDVKVQKQEEDVNVRKRPRMDIETNDTFSDEAVPESSKISQENEIGKKRELKEDSLWSAKEISNNDKLQDDSEMLPKKLLLTEFRSLVIKNSTSRNPSGINDDYGQLKNFKKFKKVTYPGAGKLPHIIGGSDLIAHHARKNTELEEWLRQEMEVQNQHAKEESLADDLFRYNPYLKRRR	−1.5879	
GRAP2 (protein, UniProt O75791 1-330, looked up) GRB2-related adapter protein 2: MEAVAKFDFTASGEDELSFHTGDVLKILSNQEEWFKAELGSQEGYVPKNFIDIQFPKWFHEGLSRHQAENLLMGKEVGFFIIRASQSSPGDFSISVRHEDDVQHFKVMRDNKGNYFLWTEKFPSLNKLVDYYRTNSISRQKQIFLRDRTREDQGHRGNSLDRRSQGGPHLSGAVGEEIRPSMNRKLSDHPPTLPLQQHQHQPQPPQYAPAPQQLQQPPQQRYLQHHHFHQERRGGSLDINDGHCGTGLGSEMNAALMHRRHTDPVQLQAAGRVRWARALYDFEALEDDELGFHSGEVVEVLDSSNPSWWTGRLHNKLGLFPANYVAPMTR	−1.6468	
